From US8785135B2, “Mutant G-protein coupled receptors and methods for selecting them” (Heptares Therapeutics Limited, priority 2007, dated 2014)

experiment: Thermostability of NTR and mutants (3H-neurotensin binding); assay type: physicochemical; conditions: Ligand(+) format
Protocol: FIG. 12 Flow chart showing the two different assay formats of ligand (+) and ligand (−) used to determine receptor thermostability.
• 1. 340 site-directed mutants have been made between residues 61-400 of NTR. • 2. Initially, all of these mutants were assayed for thermostability using an assay measuring ^3H-neurotensin (agonist) binding after the heating step. […] Mutants tested for thermostability by heating in the absence of the agonist were re-tested using a slightly different assay where the mutants were heated in the presence of ^3H-neurotensin (Ligand(+) format in FIG. 12). […] All of these also have increased thermostability. • 5. Preferred combinations are • a. Nag7m F358A+A86L+I260A+F342A Tm 51° C. (neurotensin bound) • b. Nag7n F358A+H103A+I260A+F342A Tm 51° C. (neurotensin bound) • Wildtype NTR has a Tm of 35° C. with neurotensin bound.

| Molecule | thermostability, heated in the presence of 3H-neurotensin |
| --- | --- |
| S362A: NTR point mutant (protein, UniProt P20789 1-424, looked up, variant S362A) Neurotensin receptor type 1: MHLNSSVPQGTPGEPDAQPFSGPQSEMEATFLALSLSNGSGNTSESDTAGPNSDLDVNTDIYSKVLVTAIYLALFVVGTVGNSVTAFTLARKKSLQSLQSTVHYHLGSLALSDLLILLLAMPVELYNFIWVHHPWAFGDAGCRGYYFLRDACTYATALNVASLSVERYLAICHPFKAKTLMSRSRTKKFISAIWLASALLAIPMLFTMGLQNRSGDGTHPGGLVCTPIVDTATVKVVIQVNTFMSFLFPMLVISILNTVIANKLTVMVHQAAEQGRVCTVGTHNGLEHSTFNMTIEPGRVQALRHGVLVLRAVVIAFVVCWLPYHVRRLMFCYISDEQWTTFLFDFYHYFYMLTNALFYVSAAINPILYNLVSANFRQVFLSTLACLCPGWRHRRKKRPTFSRKPNSMSSNHAFSTSATRETLY | improved thermostability |

same assay, conditions: heated in the absence of the agonist

| Molecule | thermostability, 3H-neurotensin (agonist) binding after the heating step |
| --- | --- |
| L205A: NTR point mutant (protein, UniProt P20789 1-424, looked up, variant L205A) Neurotensin receptor type 1: MHLNSSVPQGTPGEPDAQPFSGPQSEMEATFLALSLSNGSGNTSESDTAGPNSDLDVNTDIYSKVLVTAIYLALFVVGTVGNSVTAFTLARKKSLQSLQSTVHYHLGSLALSDLLILLLAMPVELYNFIWVHHPWAFGDAGCRGYYFLRDACTYATALNVASLSVERYLAICHPFKAKTLMSRSRTKKFISAIWLASALLAIPMAFTMGLQNRSGDGTHPGGLVCTPIVDTATVKVVIQVNTFMSFLFPMLVISILNTVIANKLTVMVHQAAEQGRVCTVGTHNGLEHSTFNMTIEPGRVQALRHGVLVLRAVVIAFVVCWLPYHVRRLMFCYISDEQWTTFLFDFYHYFYMLTNALFYVSSAINPILYNLVSANFRQVFLSTLACLCPGWRHRRKKRPTFSRKPNSMSSNHAFSTSATRETLY | small but significant increase in thermostability |
| A120L: NTR point mutant (protein, UniProt P20789 1-424, looked up, variant A120L) Neurotensin receptor type 1: MHLNSSVPQGTPGEPDAQPFSGPQSEMEATFLALSLSNGSGNTSESDTAGPNSDLDVNTDIYSKVLVTAIYLALFVVGTVGNSVTAFTLARKKSLQSLQSTVHYHLGSLALSDLLILLLLMPVELYNFIWVHHPWAFGDAGCRGYYFLRDACTYATALNVASLSVERYLAICHPFKAKTLMSRSRTKKFISAIWLASALLAIPMLFTMGLQNRSGDGTHPGGLVCTPIVDTATVKVVIQVNTFMSFLFPMLVISILNTVIANKLTVMVHQAAEQGRVCTVGTHNGLEHSTFNMTIEPGRVQALRHGVLVLRAVVIAFVVCWLPYHVRRLMFCYISDEQWTTFLFDFYHYFYMLTNALFYVSSAINPILYNLVSANFRQVFLSTLACLCPGWRHRRKKRPTFSRKPNSMSSNHAFSTSATRETLY | small but significant increase in thermostability |
| Y351A: NTR point mutant (protein, UniProt P20789 1-424, looked up, variant Y351A) Neurotensin receptor type 1: MHLNSSVPQGTPGEPDAQPFSGPQSEMEATFLALSLSNGSGNTSESDTAGPNSDLDVNTDIYSKVLVTAIYLALFVVGTVGNSVTAFTLARKKSLQSLQSTVHYHLGSLALSDLLILLLAMPVELYNFIWVHHPWAFGDAGCRGYYFLRDACTYATALNVASLSVERYLAICHPFKAKTLMSRSRTKKFISAIWLASALLAIPMLFTMGLQNRSGDGTHPGGLVCTPIVDTATVKVVIQVNTFMSFLFPMLVISILNTVIANKLTVMVHQAAEQGRVCTVGTHNGLEHSTFNMTIEPGRVQALRHGVLVLRAVVIAFVVCWLPYHVRRLMFCYISDEQWTTFLFDFYHYFAMLTNALFYVSSAINPILYNLVSANFRQVFLSTLACLCPGWRHRRKKRPTFSRKPNSMSSNHAFSTSATRETLY | small but significant increase in thermostability |
| T207A: NTR point mutant (protein, UniProt P20789 1-424, looked up, variant T207A) Neurotensin receptor type 1: MHLNSSVPQGTPGEPDAQPFSGPQSEMEATFLALSLSNGSGNTSESDTAGPNSDLDVNTDIYSKVLVTAIYLALFVVGTVGNSVTAFTLARKKSLQSLQSTVHYHLGSLALSDLLILLLAMPVELYNFIWVHHPWAFGDAGCRGYYFLRDACTYATALNVASLSVERYLAICHPFKAKTLMSRSRTKKFISAIWLASALLAIPMLFAMGLQNRSGDGTHPGGLVCTPIVDTATVKVVIQVNTFMSFLFPMLVISILNTVIANKLTVMVHQAAEQGRVCTVGTHNGLEHSTFNMTIEPGRVQALRHGVLVLRAVVIAFVVCWLPYHVRRLMFCYISDEQWTTFLFDFYHYFYMLTNALFYVSSAINPILYNLVSANFRQVFLSTLACLCPGWRHRRKKRPTFSRKPNSMSSNHAFSTSATRETLY | small but significant increase in thermostability |
| P399A: NTR point mutant (protein, UniProt P20789 1-424, looked up, variant P399A) Neurotensin receptor type 1: MHLNSSVPQGTPGEPDAQPFSGPQSEMEATFLALSLSNGSGNTSESDTAGPNSDLDVNTDIYSKVLVTAIYLALFVVGTVGNSVTAFTLARKKSLQSLQSTVHYHLGSLALSDLLILLLAMPVELYNFIWVHHPWAFGDAGCRGYYFLRDACTYATALNVASLSVERYLAICHPFKAKTLMSRSRTKKFISAIWLASALLAIPMLFTMGLQNRSGDGTHPGGLVCTPIVDTATVKVVIQVNTFMSFLFPMLVISILNTVIANKLTVMVHQAAEQGRVCTVGTHNGLEHSTFNMTIEPGRVQALRHGVLVLRAVVIAFVVCWLPYHVRRLMFCYISDEQWTTFLFDFYHYFYMLTNALFYVSSAINPILYNLVSANFRQVFLSTLACLCPGWRHRRKKRATFSRKPNSMSSNHAFSTSATRETLY | small but significant increase in thermostability |
| S362A: NTR point mutant (protein, UniProt P20789 1-424, looked up, variant S362A) Neurotensin receptor type 1: MHLNSSVPQGTPGEPDAQPFSGPQSEMEATFLALSLSNGSGNTSESDTAGPNSDLDVNTDIYSKVLVTAIYLALFVVGTVGNSVTAFTLARKKSLQSLQSTVHYHLGSLALSDLLILLLAMPVELYNFIWVHHPWAFGDAGCRGYYFLRDACTYATALNVASLSVERYLAICHPFKAKTLMSRSRTKKFISAIWLASALLAIPMLFTMGLQNRSGDGTHPGGLVCTPIVDTATVKVVIQVNTFMSFLFPMLVISILNTVIANKLTVMVHQAAEQGRVCTVGTHNGLEHSTFNMTIEPGRVQALRHGVLVLRAVVIAFVVCWLPYHVRRLMFCYISDEQWTTFLFDFYHYFYMLTNALFYVSAAINPILYNLVSANFRQVFLSTLACLCPGWRHRRKKRPTFSRKPNSMSSNHAFSTSATRETLY | small but significant increase in thermostability |
| A155L: NTR point mutant (protein, UniProt P20789 1-424, looked up, variant A155L) Neurotensin receptor type 1: MHLNSSVPQGTPGEPDAQPFSGPQSEMEATFLALSLSNGSGNTSESDTAGPNSDLDVNTDIYSKVLVTAIYLALFVVGTVGNSVTAFTLARKKSLQSLQSTVHYHLGSLALSDLLILLLAMPVELYNFIWVHHPWAFGDAGCRGYYFLRDACTYLTALNVASLSVERYLAICHPFKAKTLMSRSRTKKFISAIWLASALLAIPMLFTMGLQNRSGDGTHPGGLVCTPIVDTATVKVVIQVNTFMSFLFPMLVISILNTVIANKLTVMVHQAAEQGRVCTVGTHNGLEHSTFNMTIEPGRVQALRHGVLVLRAVVIAFVVCWLPYHVRRLMFCYISDEQWTTFLFDFYHYFYMLTNALFYVSSAINPILYNLVSANFRQVFLSTLACLCPGWRHRRKKRPTFSRKPNSMSSNHAFSTSATRETLY | small but significant increase in thermostability |
| L72A: NTR point mutant (protein, UniProt P20789 1-424, looked up, variant L72A) Neurotensin receptor type 1: MHLNSSVPQGTPGEPDAQPFSGPQSEMEATFLALSLSNGSGNTSESDTAGPNSDLDVNTDIYSKVLVTAIYAALFVVGTVGNSVTAFTLARKKSLQSLQSTVHYHLGSLALSDLLILLLAMPVELYNFIWVHHPWAFGDAGCRGYYFLRDACTYATALNVASLSVERYLAICHPFKAKTLMSRSRTKKFISAIWLASALLAIPMLFTMGLQNRSGDGTHPGGLVCTPIVDTATVKVVIQVNTFMSFLFPMLVISILNTVIANKLTVMVHQAAEQGRVCTVGTHNGLEHSTFNMTIEPGRVQALRHGVLVLRAVVIAFVVCWLPYHVRRLMFCYISDEQWTTFLFDFYHYFYMLTNALFYVSSAINPILYNLVSANFRQVFLSTLACLCPGWRHRRKKRPTFSRKPNSMSSNHAFSTSATRETLY | small but significant increase in thermostability |
| V268A: NTR point mutant (protein, UniProt P20789 1-424, looked up, variant V268A) Neurotensin receptor type 1: MHLNSSVPQGTPGEPDAQPFSGPQSEMEATFLALSLSNGSGNTSESDTAGPNSDLDVNTDIYSKVLVTAIYLALFVVGTVGNSVTAFTLARKKSLQSLQSTVHYHLGSLALSDLLILLLAMPVELYNFIWVHHPWAFGDAGCRGYYFLRDACTYATALNVASLSVERYLAICHPFKAKTLMSRSRTKKFISAIWLASALLAIPMLFTMGLQNRSGDGTHPGGLVCTPIVDTATVKVVIQVNTFMSFLFPMLVISILNTVIANKLTVMAHQAAEQGRVCTVGTHNGLEHSTFNMTIEPGRVQALRHGVLVLRAVVIAFVVCWLPYHVRRLMFCYISDEQWTTFLFDFYHYFYMLTNALFYVSSAINPILYNLVSANFRQVFLSTLACLCPGWRHRRKKRPTFSRKPNSMSSNHAFSTSATRETLY | small but significant increase in thermostability |
| F189A: NTR point mutant (protein, UniProt P20789 1-424, looked up, variant F189A) Neurotensin receptor type 1: MHLNSSVPQGTPGEPDAQPFSGPQSEMEATFLALSLSNGSGNTSESDTAGPNSDLDVNTDIYSKVLVTAIYLALFVVGTVGNSVTAFTLARKKSLQSLQSTVHYHLGSLALSDLLILLLAMPVELYNFIWVHHPWAFGDAGCRGYYFLRDACTYATALNVASLSVERYLAICHPFKAKTLMSRSRTKKAISAIWLASALLAIPMLFTMGLQNRSGDGTHPGGLVCTPIVDTATVKVVIQVNTFMSFLFPMLVISILNTVIANKLTVMVHQAAEQGRVCTVGTHNGLEHSTFNMTIEPGRVQALRHGVLVLRAVVIAFVVCWLPYHVRRLMFCYISDEQWTTFLFDFYHYFYMLTNALFYVSSAINPILYNLVSANFRQVFLSTLACLCPGWRHRRKKRPTFSRKPNSMSSNHAFSTSATRETLY | small but significant increase in thermostability |

same assay, conditions: neurotensin bound

| Molecule | Tm [°C] |
| --- | --- |
| Nag7n: NTR mutant F358A+H103A+I260A+F342A (protein) TSESDTAGPNSDLDVNTDIYSKVLVTAIYLALFVVGTVGNSVTAFTLARKKSLQSLQSTVAYHLGSLALSDLLILLLAMPVELYNFIWVHHPWAFGDAGCRGYYFLRDACTYATALNVASLSVERYLAICHPFKAKTLMSRSRTKKFISAIWLASALLAIPMLFTMGLQNRSGDGTHPGGLVCTPIVDTATVKVVIQVNTFMSFLFPMLVISILNTVAANKLTVMVHQAAEQGRVCTVGTHNGLEHSTFNMTIEPGRVQALRHGVLVLRAVVIAFVVCWLPYHVRRLMFCYISDEQWTTALFDFYHYFYMLTNALAYVSSAINPILYNLVSANFRQVFLSTLACLCPGWRHRRKKRPTFSRKPNSMSSNHAFSTSATRETLY | 51 |
